Data: PMC4892741, “Two shikimate dehydrogenases, VvSDH3 and VvSDH4, are involved in gallic acid biosynthesis in grapevine” (Journal of Experimental Botany, 2016)

B1: VvSDH1 (Vitis vinifera) (protein)
chain: MESGGMSKNSTLICVPIMGETIEKMVVDMSKAKTSGADLVEVRLDTLKRFNPRQDLEVLIRKCPLPTLFTYRPKWEGGQYEGDENSRRDALRLAMELGADYVDIELKVAHEFINSIHGRKPEKFKVIVSSHNYQNTPSVEDLGNLVVSIQATGADIVKIATTALEITDVARIFQITVHSQVPVIGLVMGERGLISRILCPKFSGYLTFGSLEPGIVSAPGQPTIKDLLNLYNFRQLGPDTKVFGVIGKPVSHSKSPHLYNEAFKSVGFNGVYVHLLVDDIAKFFHTYSAADFAGFSCTIPHKEAALKCCDEVSPVAKSIGAVNCIIRRPSDGKLFGYNTDYVGAISAIEDGLRDLHKISSTSGSPLAGKLFVVIGAGGAGKALAYGAKEKGARVVIANRTYARARELADAVGGDALSLADLNNFHPENGMILANTTSIGMQPKVDETPISKHALKYYSLVFDAIYTPKITRLLREAQESGATIVTGLEMFIGQAYEQFERFTGLPAPKELFKQFISNLQ
notes: E. coli BL21(DE3); GST tag removed after purification
B2: VvSDH3 (Vitis vinifera) (protein)
chain: MGSLPFTVSDLQTSVSGVRSNPTLLCTPLMGTTVEQMLTEMRKAKEIGADIVEIRLDCLRNFSPAQDLQILIKQSPLPTLVTYRPIWEGGQYEGDENKRQDALRLAMELGASYIDVELEVAHEFNNSIYGKKPQNFKVIVSSHNFHNTPSTEAIGNLVARIQASGADIVKIATTALDITDVARVLQVTVHSQVPTIAIVMGERGLISRLLSPKFGGYLTYGALEAGAISAPGQPTAKDLLDLYNFRLVKPDTKVYGIIGKPVGHSKSPLLFNAAFKKVGLNAVYVHLLVDDVEKFFNTYSAPDFISGCSCTIPHKEVAIKCMDTIDPIARKIGAINNIVRKPDGKLTAFNTDYIGAIEAIEDGLRESNGSSPAVGSPLAGKLFVVLGAGGAGKSLAYGAKEKGARVVVANRTFERAKDLADKVGGQALTLAEIENFHPEEGMILANTTSVGMKPKINDTPIPKHALKHYSLVFDAIYTPKDTRLLREAKESGKIIVYGTEMLIRQGFEQYKNFTGLPAPEELFRELMSKHA
notes: as for B1
B3: VvSDH4 (Vitis vinifera) (protein)
chain: GARRNSTLICVPIMADSVDQMLGQIRKAKEVGGDLVEIRLDYLKNFSPRQDLQFLVKQSPLPTLVTYRPTWEGGQYDGDEGKRLDALRLAIELGADYIDVELQVAPEFINSIQGKTSGKVKIIVSSHNYQNTPSAEELGNLVARIQATGADIVKIATTALDITDCARIFQVLAHSQVPTIGIAMAERGLISRILSAKFGSYLTFGSLEAGVVSAPGQPTVKDLLDLYNFRQIGPDTKVHGVIGKPIGHSKSPHLYNSAFKSVGFNGIYLPLLVDSVKNFLATYSSPDFVGYSYTIPHKEDGLRCCDEIDPIAQAIGAISCMIRRPADGKLMGYNVDYLGAIAAIEEGLRASNGTTSVGSPLAGKLFVVIGAGGAGKALAYGGKEKGARVVVANRTFEKAKELASKVGGEAMTLAELENFHPEDGMILANTTSVGMKPNIDNTPLSKKALSRYSLVFDAIYTPKLTRLLREAQESGAIIVYGTEMFINQAFVQFERFTGLPAPKELIREVLVRNT
notes: partial cDNA lacking the first 17 aa (putative transit peptide); E. coli BL21(DE3); GST tag removed

Legend:
Assay in all cases: purified protein
Format in all cases: biochemical, Vitis vinifera
[1] = substrate: O=C(O)C1=CC(=O)[C@@H](O)[C@H](O)C1; conditions: 0.4 mM NADPH, pH 7, 100 mM Bis-Tris Propane HCl, 30 °C, 3-DHS reduction, pH 7.0
[2] = substrate: O=C(O)C1=C[C@@H](O)[C@@H](O)[C@H](O)C1; conditions: 2 mM NADP+, pH 9, 100 mM Bis-Tris Propane HCl, 30 °C
[3] = substrate: NC(=O)c1ccc[n+]([C@@H]2O[C@H](COP(=O)(O)OP(=O)(O)OC[C@H]3O[C@@H](n4cnc5c(N)ncnc54)[C@H](OP(=O)(O)O)[C@@H]3O)[C@@H](O)[C@H]2O)c1; conditions: 4 mM shikimate, pH 9, 100 mM Bis-Tris Propane HCl, 30 °C

Protein | Km [1] | Vmax [1] | kcat [1] | kcat/Km [1] | Km ([2]; pH 9.0) | Vmax ([2]; pH 9.0) | kcat ([2]; pH 9.0) | kcat/Km ([2]; pH 9.0) | Km ([3]; pH 9.0, varied: cofactor) | Vmax ([3]; pH 9.0, varied: cofactor) | kcat ([3]; pH 9.0, varied: cofactor) | kcat/Km ([3]; pH 9.0, varied: cofactor) | Km [2] | Vmax [2] | kcat [2] | kcat/Km [2] | Km ([3]; varied: cofactor) | Vmax ([3]; varied: cofactor) | kcat ([3]; varied: cofactor) | kcat/Km ([3]; varied: cofactor)
B1 | 156.9 ± 31.3 µM | 102 µmol/min/mg | 95.8 ± 10.2 s⁻¹ | 611000 M⁻¹ s⁻¹ | 90 ± 16 µM | 100 µmol/min/mg | 94.5 ± 7.2 s⁻¹ | 1.05e+06 M⁻¹ s⁻¹ | 214.7 ± 56.4 µM | 254 µmol/min/mg | 239 ± 26.3 s⁻¹ | 1.11e+06 M⁻¹ s⁻¹ |  |  |  |  |  |  |  | 
B2 | 46.3 ± 18.2 µM | 9 µmol/min/mg | 8.62 ± 0.93 s⁻¹ | 186000 M⁻¹ s⁻¹ | 27.3 ± 10.4 µM | 5.4 µmol/min/mg | 5.16 ± 0.56 s⁻¹ | 189000 M⁻¹ s⁻¹ | 38.4 ± 11.9 µM | 27 µmol/min/mg | 26.1 ± 2.68 s⁻¹ | 680000 M⁻¹ s⁻¹ |  |  |  |  |  |  |  | 
B3 |  |  |  |  |  |  |  |  |  |  |  |  | 146.8 ± 60 µM | 27.6 µmol/min/mg | 26.1 ± 4.97 s⁻¹ | 178000 M⁻¹ s⁻¹ | 53.8 ± 5.8 µM | 30 µmol/min/mg | 28.9 ± 1.06 s⁻¹ | 537000 M⁻¹ s⁻¹
